Results taken from article PMC6301718, “CDHR3 extracellular domains EC1-3 mediate rhinovirus C interaction with cells and as recombinant derivatives, are inhibitory to virus infection” (PLoS Pathogens, 2018).
Changes are numbered by the printed parent chain. Names and notes keep the numbering of the source.

Legend:
[1] = biological target: pHL-FLAG-CDHR3-His EC1-3 (1–345) (human) (UniProt Q6ZTQ4); experiment: co-IP; HeLa-expressed CDHR3 fragments recovered from lysate with α-His mAb, denatured and refolded as the bacterial proteins, reacted with C15 virus; IP and detection with α-His mAb
[2] = biological target: FLAG-tag-CDHR3 Y529 K43A (human) (UniProt Q6ZTQ4); experiment: co-IP; clarified lysate of transfected or stably transduced HeLa cells (2 mM CaCl2) incubated with sucrose purified C15 virus (10^7 PFUe) and α-CDHR3 antibody (cytoplasmic domain) overnight at 4°C, protein-G sepharose; Western with α-CDHR3 and α-C15
[3] = biological target: FLAG-tag-CDHR3 Y529 N186A (human) (UniProt Q6ZTQ4); experiment: as above
[4] = biological target: FLAG-tag-CDHR3 Y529 N186Q (human) (UniProt Q6ZTQ4); experiment: as above
[5] = biological target: FLAG-tag-CDHR3 Y529 R166A (human) (UniProt Q6ZTQ4); experiment: as above
[6] = biological target: FLAG-tag-CDHR3 Y529 W76A (human) (UniProt Q6ZTQ4); experiment: as above
[7] = biological target: rEC1 (CDHR3 residues 20–130) (human) (UniProt Q6ZTQ4); experiment: co-IP; refolded bacterial CDHR3 fragment (100 pmol) incubated with C15 virus (10^7 PFUe, 1 h, 25°C) and α-His mAb in 20 mM Tris, 137 mM NaCl, 2 mM CaCl2, 1% Triton x-100, protein-G sepharose; Western with α-His and α-C15; complexes also treated with 500 mM NaCl (Fig 5d)
[8] = biological target: rEC1+3(Δ2) (CDHR3 residues 20–345, Δ129–231) (human) (UniProt Q6ZTQ4); experiment: as above
[9] = biological target: rEC1-2 (CDHR3 residues 20–237) (human) (UniProt Q6ZTQ4); experiment: as above
[10] = biological target: rEC1-3 (CDHR3 residues 20–345, C345A) (human) (UniProt Q6ZTQ4); experiment: as above
[11] = biological target: rEC1-3 K43A (20–345, C345A, K43A) (human) (UniProt Q6ZTQ4); experiment: as above
[12] = biological target: rEC1-3 N186A (20–345, C345A, N186A) (human) (UniProt Q6ZTQ4); experiment: as above
[13] = biological target: the molecule itself; experiment: SEC; HiPrep 16/60 Sephacryl S200, refolded protein 0.5–1.5 mg, 1 mL/min, 20 mM Tris (pH 8.0), 137 mM NaCl, 2 mM CaCl2

In the case of rhinovirus C15 virion (complex), the binding % after refolding relative to the same protein not refolded [1] is reported as 213%, the binding % relative to WT CDHR3 (C15 signal normalized to CDHR3 signal) [2] is reported as 46% and the binding % relative to WT CDHR3 (C15 signal normalized to CDHR3 signal) [3] is reported as 11%. It also gave a binding % relative to WT CDHR3 (C15 signal normalized to CDHR3 signal) [4] of 19%, a binding % relative to WT CDHR3 (C15 signal normalized to CDHR3 signal) [5] of 16% and a % more virus pull-down than WT (% more than WT) [6] of 50 to 80. For the same molecule, the binding % relative to the positive control (100) of the panel [7] was 100%, the binding % relative to the positive control (100) of the panel [8] was 68% and the binding % relative to the positive control (100) of the panel [9] was 87%. For the same molecule, the binding % relative to the positive control (100) of the panel [10] was 61%, the binding % relative to WT rEC1-3 [11] was 22% and the binding % relative to WT rEC1-3 [12] was 85 % of WT.

B1: rEC1-2 (CDHR3 residues 20–237) (domain or fragment)
chain: LHLILLPATGNVAENSPPGTSVHKFSVKLSASLSPVIPGFPQIVNSNPLTEAFRVNWLSGTYFEVVTTGMEQLDFETGPNIFDLQIYVKDEVGVTDLQVLTVQVTDVNEPPQFQGNLAEGLHLYIVERANPGFIYQVEAFDPEDTSRNIPLSYFLISPPKSFRMSANGTLFSTTELDFEAGHRSFHLIVEVRDSGGLKASTELQVNIVNLNDEVPRFT
notes: CDHR3, human, residues 20-237 (EC1 and EC2); numbering from GenBank AIC58018; also called rE1-2; rEC1-2 WT; not shown: His6, C-terminal, kept
B1: binds [13].

B2: rEC1-2 W76A (CDHR3 residues 20–237, W76A) (domain or fragment, human, UniProt Q6ZTQ4 20-237, looked up)
chain: B1 chain with W57A
notes: CDHR3, human, residues 20-237; numbering from GenBank AIC58018; not shown: His6, C-terminal, kept
B2: binds [13].

B3: rEC1-3 (CDHR3 residues 20–345, C345A) (domain or fragment)
chain: LHLILLPATGNVAENSPPGTSVHKFSVKLSASLSPVIPGFPQIVNSNPLTEAFRVNWLSGTYFEVVTTGMEQLDFETGPNIFDLQIYVKDEVGVTDLQVLTVQVTDVNEPPQFQGNLAEGLHLYIVERANPGFIYQVEAFDPEDTSRNIPLSYFLISPPKSFRMSANGTLFSTTELDFEAGHRSFHLIVEVRDSGGLKASTELQVNIVNLNDEVPRFTSPTRVYTVLEELSPGTIVANITAEDPDDEGFPSHLLYSITTVSKYFMINQLTGTIQVAQRIDRDAGELRQNPTISLEVLVKDRPYGGQENRIQITFIVEDVNDNPATA
notes: numbering from GenBank AIC58018; also called soluble CDHR3 rEC1-3; not shown: His6, C-terminal, kept
B3: binds [13].
